T1: MBP-ECD1 (UniProt Q5G1T1 51-850)
T1 sequence: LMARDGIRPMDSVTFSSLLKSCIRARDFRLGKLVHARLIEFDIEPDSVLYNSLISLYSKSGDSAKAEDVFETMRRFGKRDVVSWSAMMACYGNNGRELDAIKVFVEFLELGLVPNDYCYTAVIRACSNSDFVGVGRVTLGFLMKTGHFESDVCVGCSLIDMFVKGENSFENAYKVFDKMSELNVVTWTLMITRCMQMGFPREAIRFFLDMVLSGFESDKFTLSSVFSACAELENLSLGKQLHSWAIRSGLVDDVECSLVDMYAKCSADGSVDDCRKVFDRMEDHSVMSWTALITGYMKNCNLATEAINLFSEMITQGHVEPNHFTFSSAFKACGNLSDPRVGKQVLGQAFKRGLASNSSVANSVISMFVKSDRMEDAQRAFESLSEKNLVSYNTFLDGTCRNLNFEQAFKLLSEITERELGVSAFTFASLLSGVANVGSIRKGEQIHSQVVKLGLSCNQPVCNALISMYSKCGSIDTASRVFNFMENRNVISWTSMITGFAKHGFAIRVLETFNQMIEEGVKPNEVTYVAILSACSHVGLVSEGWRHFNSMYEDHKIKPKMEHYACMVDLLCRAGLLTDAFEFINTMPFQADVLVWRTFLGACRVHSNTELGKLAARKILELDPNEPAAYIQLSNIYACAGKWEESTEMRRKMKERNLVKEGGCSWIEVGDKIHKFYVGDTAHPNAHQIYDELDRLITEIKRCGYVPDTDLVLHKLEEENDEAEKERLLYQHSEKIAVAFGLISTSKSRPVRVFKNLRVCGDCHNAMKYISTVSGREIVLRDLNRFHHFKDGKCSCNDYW


Tests used:
[1] = target: T1, MBP-ECD1; assay: EMSA; 25, 50, 100 nM protein, 10 nM probe; unlabeled same RNA (10-, 50-, 100-fold) used as competitor confirmed specificity; LightShift Chemiluminescent RNA EMSA Kit (Thermo 20158), 20 min at 25 °C, 6% Tris-borate gel in 0.5x TBE; binding buffer, salt and pH not stated; settings: protein: recombinant; tags: N-terminal MBP; primer adds HHHHHH-ENLYFQG (TEV site); label: 5' biotin; single strand
[2] = target: T1, MBP-ECD1; assay: EMSA; 25, 50, 100 nM protein, 10 nM probe; LightShift Chemiluminescent RNA EMSA Kit (Thermo 20158), 20 min at 25 °C, 6% Tris-borate gel in 0.5x TBE; binding buffer, salt and pH not stated; settings: protein: recombinant; tags: N-terminal MBP; primer adds HHHHHH-ENLYFQG (TEV site); label: 5' biotin; single strand

Binder | binding result [1] | binding result [2]
GAAAAUUCAUGGAAAAUUACAAUCCCCACCGCG (ssRNA) [rps14-149] | binds | 
AAAUAUCAUUUGAUUCGUCGAUCCUCAAAAAAG (ssRNA) [rps14-80] |  | no binding
